Laboratory results reported in PMC7367873, “Dissecting the sequence determinants for dephosphorylation by the catalytic subunits of phosphatases PP1 and PP2A” (Nature Communications, 2020).

What was measured:
[1] = test system: GFP-14-3-3β and its binding proteins; experiment: GFP-14-3-3β co-IP with LC-MS/MS label-free quantification, untreated versus PP1c-treated; parameters: species or system human; settings: PP1 vs untreated; label-free quantification
GFP-14-3-3β = GFP-14-3-3β co-IP with LC-MS/MS, untreated GFP-14-3-3β versus GFP control (14-3-3 interactome); type: binding, human; settings: untreated vs GFP; label-free quantification

Molecule | Difference (log2), PP1 vs untreated [1] [log2] | Difference (log2), untreated vs GFP (GFP-14-3-3β) [log2]
NUFIP2 (protein, UniProt Q7Z417 1-695, looked up) FMR1-interacting protein …: MEEKPGQPQPQHHHSHHHPHHHPQQQQQQPHHHHHYYFYNHSHNHHHHHHHQQPHQYLQHGAEGSPKAQPKPLKHEQKHTLQQHQETPKKKTGYGELNGNAGEREISLKNLSSDEATNPISRVLNGNQQVVDTSLKQTVKANTFGKAGIKTKNFIQKNSMDKKNGKSYENKSGENQSVDKSDTIPIPNGVVTNNSGYITNGYMGKGADNDGSGSESGYTTPKKRKARRNSAKGCENLNIVQDKIMQQETSVPTLKQGLETFKPDYSEQKGNRVDGSKPIWKYETGPGGTSRGKPAVGDMLRKSSDSKPGVSSKKFDDRPKGKHASAVASKEDSWTLFKPPPVFPVDNSSAKIVPKISYASKVKENLNKTIQNSSVSPTSSSSSSSSTGETQTQSSSRLSQVPMSALKSVTSANFSNGPVLAGTDGNVYPPGGQPLLTTAANTLTPISSGTDSVLQDMSLTSAAVEQIKTSLFIYPSNMQTMLLSTAQVDLPSQTDQQNLGDIFQNQWGLSFINEPSAGPETVTGKSSEHKVMEVTFQGEYPATLVSQGAEIIPSGTEHPVFPKAYELEKRTSPQVLGSILKSGTTSESGALSLEPSHIGDLQKADTSSQGALVFLSKDYEIESQNPLASPTNTLLGSAKEQRYQRGLERNDSWGSFDLRAAIVYHTKEMESIWNLQKQDPKRIITYNEAMDSPDQ | 0.7682 | 0.8112
ARHGEF2 (protein, UniProt Q92974 1-986, looked up) Rho guanine nucleotide …: MSRIESLTRARIDRSRELASKTREKEKMKEAKDARYTNGHLFTTISVSGMTMCYACNKSITAKEALICPTCNVTIHNRCKDTLANCTKVKQKQQKAALLKNNTALQSVSLRSKTTIRERPSSAIYPSDSFRQSLLGSRRGRSSLSLAKSVSTTNIAGHFNDESPLGLRRILSQSTDSLNMRNRTLSVESLIDEAEVIYSELMSDFEMDEKDFAADSWSLAVDSSFLQQHKKEVMKQQDVIYELIQTELHHVRTLKIMTRLFRTGMLEELHLEPGVVQGLFPCVDELSDIHTRFLSQLLERRRQALCPGSTRNFVIHRLGDLLISQFSGPSAEQMCKTYSEFCSRHSKALKLYKELYARDKRFQQFIRKVTRPAVLKRHGVQECILLVTQRITKYPLLISRILQHSHGIEEERQDLTTALGLVKELLSNVDEGIYQLEKGARLQEIYNRMDPRAQTPVPGKGPFGREELLRRKLIHDGCLLWKTATGRFKDVLVLLMTDVLVFLQEKDQKYIFPTLDKPSVVSLQNLIVRDIANQEKGMFLISAAPPEMYEVHTASRDDRSTWIRVIQQSVRTCPSREDFPLIETEDEAYLRRIKMELQQKDRALVELLREKVGLFAEMTHFQAEEDGGSGMALPTLPRGLFRSESLESPRGERLLQDAIREVEGLKDLLVGPGVELLLTPREPALPLEPDSGGNTSPGVTANGEARTFNGSIELCRADSDSSQRDRNGNQLRSPQEEALQRLVNLYGLLHGLQAAVAQQDTLMEARFPEGPERREKLCRANSRDGEAGRAGAAPVAPEKQATELALLQRQHALLQEELRRCRRLGEERATEAGSLEARLRESEQARALLEREAEEARRQLAALGQTEPLPAEAPWARRPVDPRRRSLPAGDALYLSFNPPQPSRGTDRLDLPVTTRSVHRNFEDRERQELGSPEERLQDSSDPDTGSEEEGSSRLSPPHSPRDFTRMQDIPEETESRDGEAVASES | 0.772 | 1.2
FLOT2 (protein, UniProt Q14254 2-428, looked up) Flotillin-2: GNCHTVGPNEALVVSGGCCGSDYKQYVFGGWAWAWWCISDTQRISLEIMTLQPRCEDVETAEGVALTVTGVAQVKIMTEKELLAVACEQFLGKNVQDIKNVVLQTLEGHLRSILGTLTVEQIYQDRDQFAKLVREVAAPDVGRMGIEILSFTIKDVYDKVDYLSSLGKTQTAVVQRDADIGVAEAERDAGIREAECKKEMLDVKFMADTKIADSKRAFELQKSAFSEEVNIKTAEAQLAYELQGAREQQKIRQEEIEIEVVQRKKQIAVEAQEILRTDKELIATVRRPAEAEAHRIQQIAEGEKVKQVLLAQAEAEKIRKIGEAEAAVIEAMGKAEAERMKLKAEAYQKYGDAAKMALVLEALPQIAAKIAAPLTKVDEIVVLSGDNSKVTSEVNRLLAELPASVHALTGVDLSKIPLIKKATGVQV | 0.7666 | -0.7491
